# Reference: publication PMC12119765, “Unveiling the potential of copper-61 vs. gallium-68 for SSTR PET imaging” (European Journal of Nuclear Medicine and Molecular Imaging, 2025)
# Assays:
# [1] = tested on: AR42J tumor-bearing mice; assay: in vivo; details: AR42J tumor, 4 h p.i., mean ± SEM, N = 3
# Protocol: (§1) Animal studies were approved by the Animal Welfare Committee of the Institute for Nuclear Sciences Applied to Health (ICNAS) of University of Coimbra (ORBEA 05-2024) and by the Portuguese National Authority for Animal Health (DGAV). Athymic male Swiss Foxn1nu mice (28–32 g, 6–8 weeks old) were purchased from ICNAS and housed under pathogen free conditions in individually ventilated cages. To establish the tumor model, animals were injected subcutaneously in the left flank with 3 × 10^6 AR42J cells resuspended in 100 µL of PBS 50 with 50% Matrigel. Tumor growth was monitored twice weekly by caliper measurements and were allowed to grow to a maximum volume of 1 cm^3.
# (§2) Mice were sacrificed at 1.5–4.5 h p.i. and perfused with PBS. Organs including brain, heart, lung, liver, kidney, spleen, stomach, intestine, bone, and muscle were collected and weighted. Blood samples were collected via tail vein bleeding at different time points to monitor the residence time of the radiopharmaceuticals in the circulation. After sacrifice, urine was directly collected from the bladder for radio-HPLC analysis of radiopharmaceutical integrity. The radioactivity of each sample was measured using an automated CRC-55tW gamma well counter (Mirion Technologies - Atlanta, GA, USA). Results were expressed as the percentage of injected dose per gram (ID/g) of tissue and presented as the mean ± SEM (N = 3 per radiopharmaceutical).
# [2] = in vivo; details: male, athymic Swiss Foxn1nu, mouse, intravenous, total radioactivity; for tissue uptake at 1 h: AR42J tumor
# Protocol: as §1, §2
# [3] = urine sample collected 4 h after i.v. injection
# Protocol: as §2
# [4] = tested on: healthy control mice; assay: PET/MR imaging in healthy control mice; assay type: in vivo
# Protocol: (§3) A set of fiducial markers was used for an optimal PET/MRI co-registration. The breathing rate and body temperature of the animals were monitored throughout the imaging procedures (SA Instruments SA, USA). After the PET scan, a whole-body MRI was performed on a BioSpec 9.4T MRI scanner with a body volume resonator (transmitter/receiver) with the animal in the same position for anatomical co-localization. Anatomical reference images were obtained from axial and coronal multi-slice scans. A set of fiducial markers were used on the animal bed for an optimal PET/MRI co-registration. Quantitative image processing was performed using PMOD (PMOD, v 3.6; PMOD Technologies, Zürich, Switzerland, RRID: SCR_016547). FUSION Tools were used to deliniate volumes of interest (VOIs) on the PET images co-registered with the anatomical MRI. Blood samples were collected at 1, 2, and 4 h after injection for measurement of whole-blood radioactivity concentrations.
# [5] = tested on: SSTR-expressing AR42J cells; assay: Cell uptake and internalization studies in SSTR-expressing AR42J cells; assay type: cell-based, rat; details: for Intracellular (internalized) activity: 2 h incubation time, 0.5 nM, Fig. 2C, percentage per million cells; for Maximum total uptake into AR42J: at 2 h, 0.5 nM radiolabeled peptide; for Membrane-bound fraction over time: glycine buffer wash fraction, 15 min to 2 h
# Protocol: The AR42J cell line, a natural SSTR-overexpressing epithelial-like cell isolated from a rat pancreatic tumor, was purchased from American Type Culture Collection (ATCC, CRL-1492) (Manassas, VA, USA) and cultured in F-12 K medium (ATCC, Catalog No. 30-2004) supplemented with 20% heat-inactivated fetal bovine serum (FBS, Gibco) and 1% PenStrep. The cells were maintained under standard adherent conditions in a humidified incubator with 5% CO2 at 37° C.
# Cells were incubated at 37 °C for a maximum of 2–4 h (15 min, 30 min, 1 h, 2 h, and 4 h) for ^68Ga-based and ^61Cu-based radiopharmaceuticals, respectively. At the indicated time points, the cellular uptake was terminated by washing the cells with PBS. Cell surface-bound radioactivity was removed by an acid wash (50 mM glycine, pH 2.8) at RT for 5 min. The pH was neutralized with PBS, and the cells were lysed by incubation with 1 M NaOH at 37 °C for 5 min to determine internalized radioactivity. Each experiment was performed in triplicate. […] For blocking studies, parallel experiments were performed as described above, but cells were incubated in the presence of DOTA-TATE precursor (0.5 µM) at 37 °C for the same time points.
# [6] = in vivo; details: male, athymic Swiss Foxn1nu, mouse, whole blood, total radioactivity
# Protocol: as §3, §2
# [7] = In vitro stability in the final formulation (10% EtOH) by radioHPLC; assay type: physicochemical
# Protocol: The HPLC method used is detailed in Table 1.
# The stability of [^61Cu]Cu-NOTA-TATE was tested in the final formulation up to 6 h after EOS. At different time points (T0, T0 + 2, T0 + 4 and T0 + 6 h) aliquots were taken and measured using the previously described radioHPLC method.
# [8] = tested on: tumor; parameters: method as in PMID 32297029; details: cited from earlier work
# [9] = tested on: AR42J subcutaneous tumor-bearing mice; details: 1 h p.i., i.v.
# Protocol: as §1
# as §3, with “Anatomical reference images were obtained from axial and coronal multi-slice scans. A set of fiducial markers were used on the animal bed for an optimal PET/MRI co-registration.” left out, “FUSION Tools were used to deliniate volumes of interest (VOIs) on the PET images co-registered with the anatomical MRI.” left out
compound,measurement,setting,value
"C[C@@H](O)[C@H](NC(=O)[C@@H]1CSSC[C@H](NC(=O)[C@@H](Cc2ccccc2)NC(=O)CN2CCN(CC(=O)O)CCN(CC(=O)O)CC2)C(=O)N[C@@H](Cc2ccc(O)cc2)C(=O)N[C@H](Cc2c[nH]c3ccccc23)C(=O)N[C@@H](CCCCN)C(=O)N[C@@H]([C@@H](C)O)C(=O)N1)C(=O)O [[^61Cu]Cu-NOTA-TATE, metal not drawn]",Tumor uptake (tumor activity),[1],12.81 ± 0.57 % ID/g
same,tissue uptake at 1 h,[2],13.2 ± 1.86 %ID/g
same,tissue to tissue ratio at 1 h,[2]; tumor and kidney,4.25 ± 1.09
same,tissue to tissue ratio at 4 h,[2]; tumor and kidney,17.3 ± 4.99
same,tissue to tissue ratio at 1 h,[2]; tumor and liver,14.1 ± 4.29
same,tissue to tissue ratio at 4 h,[2]; tumor and liver,21 ± 1.28
same,tissue to tissue ratio at 1 h,[2]; tumor and muscle,255 ± 64.7
same,tissue to tissue ratio at 4 h,[2]; tumor and muscle,495 ± 109
same,Intact radiopharmaceutical in urine (radioHPLC),[3],100%
same,Biodistribution profile in PET/MR images,"[4]; healthy control mice, 1 h and 4 h p.i.",rapid clearance with marked accumulation in the kidneys and bladder
same,Intracellular (internalized) activity,[5],51.4%
same,Maximum total uptake into AR42J,[5],58.6 ± 3.6 %/10^6 cells
same,Membrane-bound fraction over time,[5],≤ 10%
same,tissue uptake at 2 h,[6]; intravenous,0.13 ± 0.02 %ID/g
same,tissue uptake at 4 h,[6]; intravenous,0.09 ± 0.004 %ID/g
same,tissue uptake at 1 h,[6]; iv,0.19 ± 0.003 %ID/g
same,Time stable after EOS,[7]; after the EOS,at least 6 h
same,In vitro stability (radiochemical purity by radioHPLC),"[7]; final formulation (10% EtOH), after 6 h of incubation",> 95%
"[Cl][Cu][Cl] [[^61Cu]CuCl2, copper chloride, reference compound]",Biodistribution profile in PET/MR images,"[4]; healthy mice, 1 h after injection",accumulation profile of free copper in the liver and the intestine
"C[C@@H](O)[C@H](NC(=O)[C@@H]1CSSC[C@H](NC(=O)[C@@H](Cc2ccccc2)NC(=O)CN2CCN(CC(=O)O)CCN(CC(=O)O)CCN(CC(=O)O)CC2)C(=O)N[C@@H](Cc2ccc(O)cc2)C(=O)N[C@H](Cc2c[nH]c3ccccc23)C(=O)N[C@@H](CCCCN)C(=O)N[C@@H]([C@@H](C)O)C(=O)N1)C(=O)O [[^68Ga]Ga-DOTA-TATE, metal not drawn, reference compound]",tissue uptake at 1 h,[2],8.73 ± 0.45 %ID/g
same,Tumor uptake,[8],3.14 ± 2.07%
same,Intracellular (internalized) activity,[5],51.2%
same,Maximum total uptake into AR42J,[5],62.5 ± 1.9 %/10^6 cells
same,Membrane-bound fraction over time,[5],≤ 10%
same,Biodistribution profile in PET/MR images,[9],significant tumor and bladder accumulation
